Common to all, as to test: SPR
In general terms: In SPR one partner is held on a chip, and binding of the other changes the refractive index at the surface.

Test [1] has as its target HLA-B*08:01.N80I.R82L.G83R/FLR (human | not stated | EBV).
Test [2] addresses HLA-B*08:01.R82L/FLR (human | not stated | EBV).
Test [3] concerns the target HLA-B*08:01.N80I.R82L.G83R/FLR (human | not stated | EBV). This is another data set of the same source.

Like-named read-outs stand apart in the source and are kept apart here.

For the substance “Soluble KIR3DL1*001 (from UniProt P43629 22-340) (receptor)”, the Kd in test [1] was 41.9 µM; in test [2], > 300 µM; in test [3], 40.1 µM.

One may read the Kd as the constant that tells how readily two partners part at equilibrium.

The values are drawn from article PMC4282956.
